{"source": "patent US8283521B2", "about": "“Transcription factor gene induced by water deficit conditions and abscisic acid from Helianthus annuus, promoter and transgenic plants” (Bioceres S.A., priority 2003, dated 2012)", "tested_on": "gus gene", "assay": "Histochemical analysis of β-glucuronidase activity in transformed plants", "format": "in vivo, Arabidopsis thaliana", "conditions": "for expression of gus gene in cotyledons: 2-day germination seedlings; for induction of the promoter construct by ABA: gus reporter, ABA treatment; for expression of gus gene in different development stages and organs: several independent lines, all studied organs", "excerpt": "When the construct including the complete segment of the small allele was employed, the expression of the gus gene in the cotyledons of 2-day germination seedlings was also viewed. However, and differing from the region 0 to −400, the expression of gus gene was very intense in the leaves and roots of the young seedlings (FIG. 20).\nThe inventive plants from A. thaliana that resulted resistant to kanamycin in the selection and PCR reaction of were subjected to histochemical β-glucuronidase activity test. The tested embryos and organs were washed with buffer 50 mM Na2HPO4 pH 7. They were then transferred to a solution 50 mM Na2HPO4 pH 7.0, 1% Triton X-100, 2 mM X-gluc (5-bromine-4-chlorine-3-indolil β-D-glucuronide), subjected to vacuum for 5 minutes and incubated at 37° C. in darkness between 2 and 12 hours. After incubation they were fixed in 10% formaldehide solution, 50% ethanol and 5% ascetic acid for 10 minutes at room temperature. Formaldehide was removed, ethanol 70% was added and conserved at 4° C.\nThe histochemical analysis was made in 2, 10 and 20 day-old seedlings grown in Petri dishes containing MS medium and 0.8% agar and adult plants grown in flowerpots containing soil.", "data": [{"molecule": "construct including the complete segment of the small allele: promoting region from 0 to −1015 (small allele, SEQ ID NO 10) cloned in pBI101.3 driving gus (nucleic acid, listed as Helianthus annuus, cloned in pBI101.3 driving gus) DNA: GATCCAATTGGACCACCTGGCACATCGTATCTTATCTCTTTTGTCGTTTCCAACACACCACAACACACCTACAAACGTGTCAATTCACACTTCACCAATTTCATTTCCTTTTAGTCAATCATATTAAAAGTAGTAGCCCCCACCCCCATTTGTTACCTACCATTTCCCACTTTAATAATCACCCACGCTATGTCCACTTGTACTTTTGTTTGCACACAACTCTTCCCATAAAATATCAAACCAAATTTTTTTTAATGGAAAACAAATACTTCAAATGCACTATTGGTGAAATTCACCACATCAGAATACACCCGTCTCTACTCATCTACTGGCCAACGAATCTTCACGGGGGAAACCCTCACTCGTCTACTGGGACTACTGGCGCTTCAAAATGGACTACTGACAAAATTCACCACATCGGGATACACTTGTCTACTGCGGTGAGGTAAAATCCGCCGCTCAGCTCAATGATCGAACTAGCGATCGCCACCCACTCACCTTGTCTCCCATCATCACCAGGTGCCGCCAAAACAAAATGTTGGGGGCGGGAATTGAACCTAGGTCCAGTGGCGCACCCATGAATTTTTTTTCTAGGGATGCGAACGAGTGATTTAACCATACTTTTAAGAGGTGCGATCGGAAATTTTACCTATAAAATATACTAAAAAAATTTCAAGGGTCCGCCCACCCACCCCTTAACCTAAGTCCGCCTCTGCCTGGATCACGTGAAACATCAGGTCTCTCTCTTACCAGTTCACCTACAACTCATTGACAAAATATCAAAACCATATGATTTTGAGTTTTATCTCAACCGAAAGTGACATCATGACAGAGAATCGACATAACCAAAACGTGTAAACGTACAACTCACCATTGCGTTGAAAAGGACAAAACAGGTAGGATTCTTGTCAAATTCAACGCGTACACCTGTGCTTCATCTAAACCCCATACTTTAAGAACCTTTATAAAGACCACTCACTATATATACACATATATAATATCACTTATCAAACCC", "values": [{"measurement": "expression of gus gene in cotyledons", "result": "also viewed"}, {"measurement": "expression of gus gene during the reproductive stage", "setting": "reproductive stage", "result": "not detected any expression"}, {"measurement": "expression of gus gene in leaves and roots", "setting": "young seedlings", "result": "very intense"}]}, {"molecule": "construct 0 to −400: Hahb-4 promoter fragment, nucleotides 805 to 1221 of SEQ ID NO 3, cloned into pBI101.3 driving gus (nucleic acid, listed as Helianthus annuus, cloned in pBI101.3 driving gus; promoter (1)..(1221) Large allele) DNA: GGATGCGAACGAGTGGTTTAACCATACTTTTAAGAGGTGCGATCGGAAATTTTACCTATAAAATACACTAAAAAAGTTCCAAGGGTCCACCCACCCCTTAACCTAAGTCCGCCTTTGTCTGGATCACGTGAAACATCAGGTCTCTCCCTTACCAGTCCAGCTACGACTCATTGACAAAATATCAAAACCATATGATTTTGAGTTTTATCTCAACCGAAAGTGACATCATGACAGAGAATCGACATAACCAAAACGTGTAAACGTACAACTCACCATTGCGTTGAAAAGGACAAAACAGGTAGGATTCTTGTCAAATTCAACGCGTACACCTGTGCTTCATCTAAACCCCATACTTTAAGAACCTTTATAAAGACCACTCACTATATATACACATATATAATATCACTTATCAAACCC", "values": [{"measurement": "expression of gus gene in cotyledons", "result": "enough to drive the expression of gene gus"}, {"measurement": "expression of gus gene in young seedlings", "setting": "10 germination days", "result": "not detectable"}, {"measurement": "induction of the promoter construct by ABA", "result": "capable of being induced by ABA"}]}, {"molecule": "region 0 to −300: promoter fragment, nucleotides 904 to 1221 of SEQ ID NO 3, in pBI101.3 (nucleic acid, listed as Helianthus annuus, in pBI101.3; promoter (1)..(1221) Large allele) DNA: AACCTAAGTCCGCCTTTGTCTGGATCACGTGAAACATCAGGTCTCTCCCTTACCAGTCCAGCTACGACTCATTGACAAAATATCAAAACCATATGATTTTGAGTTTTATCTCAACCGAAAGTGACATCATGACAGAGAATCGACATAACCAAAACGTGTAAACGTACAACTCACCATTGCGTTGAAAAGGACAAAACAGGTAGGATTCTTGTCAAATTCAACGCGTACACCTGTGCTTCATCTAAACCCCATACTTTAAGAACCTTTATAAAGACCACTCACTATATATACACATATATAATATCACTTATCAAACCC", "values": [{"measurement": "induction of the promoter construct by ABA", "result": "not induced by ABA"}, {"measurement": "expression of gus gene in different development stages and organs", "result": "not expressed"}]}, {"molecule": "region 0 to −200: promoter fragment, nucleotides 1011 to 1221 of SEQ ID NO 3, in pBI101.3 (nucleic acid, listed as Helianthus annuus, in pBI101.3; promoter (1)..(1221) Large allele) DNA: ATCTCAACCGAAAGTGACATCATGACAGAGAATCGACATAACCAAAACGTGTAAACGTACAACTCACCATTGCGTTGAAAAGGACAAAACAGGTAGGATTCTTGTCAAATTCAACGCGTACACCTGTGCTTCATCTAAACCCCATACTTTAAGAACCTTTATAAAGACCACTCACTATATATACACATATATAATATCACTTATCAAACCC", "values": [{"measurement": "induction of the promoter construct by ABA", "result": "not induced by ABA"}, {"measurement": "expression of gus gene in different development stages and organs", "result": "not expressed"}]}]}
